Measurements as given in PMC12172977.

Target: CCHFV nucleocapsid protein (N protein) (Crimean-Congo hemorrhagic fever virus (strain 10200?)) (UniProt P89522)
Assay: filter binding

UniProt P89522, sequence (P89522 whole entry): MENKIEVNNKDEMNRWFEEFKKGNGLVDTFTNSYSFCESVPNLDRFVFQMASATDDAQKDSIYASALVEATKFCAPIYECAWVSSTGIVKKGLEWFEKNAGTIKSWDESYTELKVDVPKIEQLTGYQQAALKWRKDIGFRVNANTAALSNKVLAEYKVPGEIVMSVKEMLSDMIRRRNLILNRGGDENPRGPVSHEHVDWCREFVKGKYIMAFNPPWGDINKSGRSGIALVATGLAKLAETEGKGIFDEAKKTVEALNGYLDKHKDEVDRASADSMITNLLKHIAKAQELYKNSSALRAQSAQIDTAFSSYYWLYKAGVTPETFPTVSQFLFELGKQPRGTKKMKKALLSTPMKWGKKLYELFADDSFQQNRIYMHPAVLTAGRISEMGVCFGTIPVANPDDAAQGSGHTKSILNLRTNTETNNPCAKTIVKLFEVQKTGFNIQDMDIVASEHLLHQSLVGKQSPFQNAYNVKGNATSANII

“Luc mRNA-1 (WT S-segment 5' UTR + luciferase ORF + truncated S 3' UTR)” showed a Kd of 42 nM.
